# Experimental data published in article PMC7340788, “Structure of the yeast Swi/Snf complex in a nucleosome free state” (Nature Communications, 2020).
# T1: Swi1 (S. cerevisiae, UniProt P09547 1-1314)
# T1 construct: Swi1, subunit of the S. cerevisiae Swi/Snf complex; endogenous protein; Only part of the chain is modelled (C-terminus with seven ARM repeats, α1, β1); For cryo-EM the complex was cross-linked with 1 mM BS3; source: endogenous, S. cerevisiae; purified as part of the Swi/Snf complex through Snf6-3Flag (ANTI-FLAG M2 resin, Superose 6)
# T1 sequence (looked up): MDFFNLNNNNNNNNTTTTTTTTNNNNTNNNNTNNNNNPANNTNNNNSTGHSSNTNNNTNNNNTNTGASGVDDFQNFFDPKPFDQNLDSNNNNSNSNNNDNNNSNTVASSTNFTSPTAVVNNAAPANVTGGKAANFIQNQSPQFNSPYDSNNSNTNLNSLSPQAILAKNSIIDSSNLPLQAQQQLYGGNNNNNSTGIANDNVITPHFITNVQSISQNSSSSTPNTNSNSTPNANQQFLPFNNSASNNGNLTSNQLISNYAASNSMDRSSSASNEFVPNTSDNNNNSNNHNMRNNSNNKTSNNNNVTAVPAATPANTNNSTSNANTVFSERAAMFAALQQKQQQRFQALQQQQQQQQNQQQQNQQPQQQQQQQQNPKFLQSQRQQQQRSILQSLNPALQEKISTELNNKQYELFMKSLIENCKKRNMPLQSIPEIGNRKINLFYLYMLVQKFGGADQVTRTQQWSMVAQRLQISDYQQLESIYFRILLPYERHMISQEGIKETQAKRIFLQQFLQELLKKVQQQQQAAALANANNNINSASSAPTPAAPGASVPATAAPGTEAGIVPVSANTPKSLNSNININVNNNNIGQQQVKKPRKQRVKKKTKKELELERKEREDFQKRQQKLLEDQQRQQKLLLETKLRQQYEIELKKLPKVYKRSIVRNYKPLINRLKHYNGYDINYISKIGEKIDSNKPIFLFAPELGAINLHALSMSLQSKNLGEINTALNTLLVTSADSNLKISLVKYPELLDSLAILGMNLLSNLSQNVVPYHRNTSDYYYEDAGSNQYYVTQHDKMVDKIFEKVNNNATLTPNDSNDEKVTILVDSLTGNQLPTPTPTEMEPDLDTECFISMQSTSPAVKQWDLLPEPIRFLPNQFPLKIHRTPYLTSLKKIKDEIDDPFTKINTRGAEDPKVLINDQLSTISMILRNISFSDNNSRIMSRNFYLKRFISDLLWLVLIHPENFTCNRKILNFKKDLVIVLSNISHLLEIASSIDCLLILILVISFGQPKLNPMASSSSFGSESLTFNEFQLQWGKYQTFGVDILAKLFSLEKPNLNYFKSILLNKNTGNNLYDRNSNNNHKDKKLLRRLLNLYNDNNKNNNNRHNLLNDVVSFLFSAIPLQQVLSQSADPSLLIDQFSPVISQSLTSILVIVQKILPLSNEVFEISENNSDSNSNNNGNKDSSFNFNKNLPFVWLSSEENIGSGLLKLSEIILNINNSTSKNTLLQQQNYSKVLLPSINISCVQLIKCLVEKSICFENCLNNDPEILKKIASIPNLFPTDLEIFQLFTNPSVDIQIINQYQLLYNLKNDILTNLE
# B1: Swi3 (natural protein, S. cerevisiae, UniProt P32591 1-825, looked up)
# chain: MENTLGEGSTVNASVDVDQHGNDNNSDSNANAAVAGVANTDTAGEESQQQDESLKDEATVPNTRDAESEAITVTAKQQPTMQANKLDSQETPSTEESRAQNVFGQDNEDSDNLFGETESSVSNNEANTPSIPTNPVDNENNKPAIKEDSTIQDSNGDVKNMEDVKIQKEEEPENNTVIEGVKEESQPDENTKEMDEVEEDDEDDDQPMISPDNSIFGDTKSESKQLGNTSSVANTPSEIPDAHKAEQEDIIEKTESVDKKVDSGEERNEQEREIMNDHSKSANPKKTTITRVEPETFEIPQAHEIVIPSYSKWFNLEKIHSIEVQSLPEFFTNRIPSKTPEVYMRYRNFMVNSYRLNPNEYFSVTTARRNVSGDAAALFRLHKFLTKWGLINYQVDSKLLPKNIEPPLTSQYSTRHDAPRGLFPFESYKPSVQLPDMAKLKKMMNTSDSESTLYKYLKESKRKYDEITHPPSTTDDENGDKNDNGGKMNNEVSTSTSMTGDANLLEEGETSRPLKKVKILEQIDENWSKEDLQKLLKGIQEFGADWYKVAKNVGNKSPEQCILRFLQLPIEDKFLYGDGNGKGDNDNGLGPLKYAPHLPFSKSENPVLSTIAFLVGLVNPKTVQSMTQRAIQSAESIKSQKEEISDQKPIEHIKEGSEIAISSLGYRSHIFATNEERQMNFLTNELIRLQMEKLDAKLNHLKKLEKFMELERKTLERQQENLLIQRLNFNQNSSKIVNVLSKCLNLISDSNINNSSVAEKEEIRSQIDHFKSMLSKPETLSIGKNPFNKPNIETGENHNGQSISNENDVKPISIEAPQFYRYWSA
# notes: Swi3, subunit of the S. cerevisiae Swi/Snf complex; endogenous protein; two copies (chains A and B) in the model; also called Swi3A; Swi3B; source: endogenous, S. cerevisiae; purified as part of the Swi/Snf complex through Snf6-3Flag (ANTI-FLAG M2 resin, Superose 6)
# Columns and labels:
# Test in all cases: cryo-EM structure; endogenous Swi/Snf complex purified as a whole through Snf6-3Flag, nucleosome-free, cross-linked with 1 mM BS3, 20 mM HEPES pH 7.4, 350 mM NaCl; 4.1 Å average, 2.9 Å for the base module
# Snf5 = biological target: T2, Snf5 (S. cerevisiae, UniProt P18480 1-905); details: both partners purified
# T2 construct: Snf5, subunit of the S. cerevisiae Swi/Snf complex; endogenous protein; For cryo-EM the complex was cross-linked with 1 mM BS3; source: endogenous, S. cerevisiae; purified as part of the Swi/Snf complex through Snf6-3Flag (ANTI-FLAG M2 resin, Superose 6)
# Swi3 = biological target: B1; details: both partners purified
# Snf2 = biological target: T3, Snf2 (S. cerevisiae, UniProt P22082 1-1703); details: both partners purified
# T3 construct: Snf2, ATPase-containing subunit of the S. cerevisiae Swi/Snf complex; endogenous protein; Only the preHSA domain and the HSA helix are seen in the map; the ATPase domain is absent from the structure; For cryo-EM the complex was cross-linked with 1 mM BS3; source: endogenous, S. cerevisiae; purified as part of the Swi/Snf complex through Snf6-3Flag (ANTI-FLAG M2 resin, Superose 6)
# Swi1 = biological target: T1, Swi1; details: both partners purified
# [1] = biological target: the molecule itself
# T3 sequence (P22082 whole entry, the tested form may be a part): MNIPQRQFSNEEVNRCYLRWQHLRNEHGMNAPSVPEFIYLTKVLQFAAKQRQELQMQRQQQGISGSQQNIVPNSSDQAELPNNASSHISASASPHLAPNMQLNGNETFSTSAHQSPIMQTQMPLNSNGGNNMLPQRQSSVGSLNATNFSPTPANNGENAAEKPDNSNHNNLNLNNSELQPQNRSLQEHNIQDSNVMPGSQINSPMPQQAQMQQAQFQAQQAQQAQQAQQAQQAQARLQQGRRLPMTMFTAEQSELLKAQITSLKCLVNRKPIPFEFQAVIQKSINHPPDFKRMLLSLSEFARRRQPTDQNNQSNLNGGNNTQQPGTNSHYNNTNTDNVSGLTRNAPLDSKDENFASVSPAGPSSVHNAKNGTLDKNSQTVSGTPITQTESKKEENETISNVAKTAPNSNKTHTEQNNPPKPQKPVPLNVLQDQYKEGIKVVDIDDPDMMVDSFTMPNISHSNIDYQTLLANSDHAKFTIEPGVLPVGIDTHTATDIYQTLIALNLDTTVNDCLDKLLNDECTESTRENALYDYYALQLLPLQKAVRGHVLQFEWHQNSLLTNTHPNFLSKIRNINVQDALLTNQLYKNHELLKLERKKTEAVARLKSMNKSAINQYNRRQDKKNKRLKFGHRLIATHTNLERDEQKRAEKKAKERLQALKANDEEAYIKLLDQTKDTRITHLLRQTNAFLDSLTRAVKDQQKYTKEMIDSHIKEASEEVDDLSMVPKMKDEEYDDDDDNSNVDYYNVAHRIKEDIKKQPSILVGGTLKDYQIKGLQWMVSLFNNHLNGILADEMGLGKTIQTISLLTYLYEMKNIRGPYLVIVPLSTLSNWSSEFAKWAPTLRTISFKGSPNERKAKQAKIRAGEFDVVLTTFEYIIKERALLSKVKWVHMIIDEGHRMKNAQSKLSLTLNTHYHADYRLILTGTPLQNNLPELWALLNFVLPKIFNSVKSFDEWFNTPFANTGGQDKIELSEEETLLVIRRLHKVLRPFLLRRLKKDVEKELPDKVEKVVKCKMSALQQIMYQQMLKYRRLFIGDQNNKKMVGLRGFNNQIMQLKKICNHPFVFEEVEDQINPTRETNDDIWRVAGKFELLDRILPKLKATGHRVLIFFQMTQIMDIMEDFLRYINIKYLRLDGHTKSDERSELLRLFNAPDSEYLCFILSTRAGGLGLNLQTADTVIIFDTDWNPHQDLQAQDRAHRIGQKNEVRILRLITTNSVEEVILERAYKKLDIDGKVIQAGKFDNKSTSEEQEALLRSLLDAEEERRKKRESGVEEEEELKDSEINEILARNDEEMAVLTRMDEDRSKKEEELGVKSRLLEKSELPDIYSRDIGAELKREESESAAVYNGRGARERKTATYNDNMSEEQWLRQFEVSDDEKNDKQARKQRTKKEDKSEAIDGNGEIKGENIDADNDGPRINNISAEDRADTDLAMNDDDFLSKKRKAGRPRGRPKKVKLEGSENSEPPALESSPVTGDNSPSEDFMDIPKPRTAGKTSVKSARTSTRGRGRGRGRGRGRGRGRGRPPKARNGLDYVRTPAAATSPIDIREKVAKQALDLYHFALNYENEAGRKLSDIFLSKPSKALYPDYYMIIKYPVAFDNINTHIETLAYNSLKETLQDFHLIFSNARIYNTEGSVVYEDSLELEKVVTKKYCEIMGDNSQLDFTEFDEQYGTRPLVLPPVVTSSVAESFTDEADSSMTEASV
# T2 sequence (P18480 whole entry): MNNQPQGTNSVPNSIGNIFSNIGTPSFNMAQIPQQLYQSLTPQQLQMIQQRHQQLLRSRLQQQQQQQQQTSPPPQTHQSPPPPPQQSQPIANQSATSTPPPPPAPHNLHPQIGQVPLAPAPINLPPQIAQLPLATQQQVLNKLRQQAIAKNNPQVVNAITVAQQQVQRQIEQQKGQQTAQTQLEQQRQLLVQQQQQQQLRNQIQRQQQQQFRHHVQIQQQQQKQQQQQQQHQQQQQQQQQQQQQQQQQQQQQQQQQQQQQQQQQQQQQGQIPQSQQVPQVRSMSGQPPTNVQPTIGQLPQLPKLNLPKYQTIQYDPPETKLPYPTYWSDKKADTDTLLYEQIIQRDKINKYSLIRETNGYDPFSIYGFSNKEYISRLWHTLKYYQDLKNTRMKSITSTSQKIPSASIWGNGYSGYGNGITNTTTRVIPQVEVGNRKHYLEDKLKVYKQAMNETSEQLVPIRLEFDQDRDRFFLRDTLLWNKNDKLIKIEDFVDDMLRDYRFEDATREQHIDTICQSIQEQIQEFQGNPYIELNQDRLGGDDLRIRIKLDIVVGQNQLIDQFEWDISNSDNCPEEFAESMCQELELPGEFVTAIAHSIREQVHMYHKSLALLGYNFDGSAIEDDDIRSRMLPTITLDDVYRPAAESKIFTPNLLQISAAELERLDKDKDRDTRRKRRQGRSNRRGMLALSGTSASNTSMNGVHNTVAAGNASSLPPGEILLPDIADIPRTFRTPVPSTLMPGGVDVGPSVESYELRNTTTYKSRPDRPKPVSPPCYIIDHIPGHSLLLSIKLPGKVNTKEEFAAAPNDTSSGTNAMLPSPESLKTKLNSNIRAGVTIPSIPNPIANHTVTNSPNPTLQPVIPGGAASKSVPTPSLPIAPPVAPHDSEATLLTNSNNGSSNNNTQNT
binding result (Snf5),binding result (Swi3),binding result (Snf2),binding result (Swi1),Binder,stoichiometry N [1]
binds,binds,binds,,"Swp82 (natural protein, S. cerevisiae, UniProt P43554 1-623, looked up, Swp82, subunit of the S. cerevisiae Swi/Snf complex; endogenous protein; For cryo-EM the complex was cross-linked with 1 mM BS3; source: endogenous, S. cerevisiae; purified as part of the Swi/Snf complex through Snf6-3Flag (ANTI-FLAG M2 resin, Superose 6)) MLGEDEGNTVLEKGNNPSVKQGEVGAVFIVPKILIREHERVILKQILQILDQDELVQPPLDKFPYKKLELPKYIDELKTRDATNTSYKMIQLDAYGEKKVGSNGELFGGRHYLFNTFTFTAHMGVLLVLLQDVIKVLYQSNATHDEDEFIVQHDQILVMETSEEQTKFLAKNGVIPEESKGSFKYITARSAFVEFGASVIAGGQRIVDDYWESLAKKQNLSSHQRVFKLSTNLISKISLLRPSFQNNRISNANEISANTNNTCTISTSKFESQYPIVTEQPSAEIREAYIENFAKGEHISAIVPGQSISGTLELSAQFRVPRYHSKNSFQQALQMKAMDIPIGRHEELLAQYESQAPDGSASISLPNHIPSVNPSNKPIKRMLSSILDINVSSSKNKKSEENEMIKPMNKGQHKNNTSLNINGWKFESLPLKSAENSGKQQYYRGLPLYEKNTLLERLKQLTPNEIKELEHLHDAVFVNTGLQNVRKVRTKKWKKYWQYKAGIPIGLKRSQLDEFKNKYLKDVLAQTSVTTNFNEITNTDETITTKRVPNPNFLGNCNIKDFKPPYIYSHVNKVPQNVAGDKTAVKLDTEVKNTNANPVVATDPVAAKPDNLANFSNEVAMNN",
binds,,binds,binds,B1,2
